According to publication PMC3642088, “Phosphorylation of CDK9 at Ser175 Enhances HIV Transcription and Is a Marker of Activated P-TEFb in CD4^+ T Lymphocytes” (PLoS Pathogens, 2013):
Blank lines part the entries; values can stand above or below the molecule they belong to.

What was measured:
[1] = target: FLAG-tagged CDK9 (293T cells) (human) (UniProt P50750); test: co-IP; anti-FLAG IP from 293T cells stably expressing FLAG-tagged CDK9, with or without transiently transfected HA-tagged Tat, with or without PMA for 1 hr or 2 hrs, Western blot
[2] = target: Cyclin T1 (CycT1, hCycT1) (UniProt O60563); test: anti-FLAG co-IP, Western blot; conditions: reference: wild type
[3] = target: FLAG-CDK9 S175A (human) (UniProt P50750); test: co-IP; anti-FLAG IP of FLAG-CDK9 wildtype or mutants from latently infected Jurkat T-cells induced for 16 hr with TNF-α to express Tat, Western blot for BRD4, Tat and CycT1; levels normalised to total CDK9, three experiments
[4] = target: FLAG-CDK9 S175D (human) (UniProt P50750); test: as above
[5] = target: FLAG-CDK9 S175D (human) (UniProt P50750)
[6] = target: Tat; test: anti-FLAG co-IP, Western blot; conditions: reference: wild type; sites S175
[7] = target: BRD4 (UniProt O60885); test: anti-FLAG co-IP, Western blot; conditions: reference: wild type
[8] = target: FLAG-HEXIM1 (UniProt O94992); test: co-IP; anti-FLAG IP of FLAG-HEXIM1 from whole cell extracts of 2D10 cells, unstimulated or PMA for 1 h with or without U0126, FLAG peptide elution, Western blot
[9] = target: T1, FLAG-CDK9 S175D (human, UniProt P50750 1-372, S175D); test: co-IP; anti-FLAG M2 agarose IP of FLAG-CDK9 wildtype or mutants from whole cell extracts (lysis buffer A) of Jurkat 2D10 cells, FLAG peptide elution, Western blot; densitometry normalised to total immunoprecipitated CDK9, five experiments; conditions: partners not purified
T1 construct: also called S175D CDK9; Ser175Asp

[10] = target: T2, FLAG-CDK9 T186D (human, UniProt P50750 1-372, T186D); test: as above; conditions: partners not purified
T2 construct: also called T186D CDK9

[11] = target: T3, FLAG-CDK9 T186A (human, UniProt P50750 1-372, T186A); test: as above; conditions: partners not purified
T3 construct: also called T186A CDK9

[12] = target: T4, FLAG-CDK9 S175A (human, UniProt P50750 1-372, S175A); test: as above; conditions: partners not purified
T4 construct: also called S175A CDK9; Ser175Ala

Molecule: HA-tagged Tat (from UniProt P04608 1-86) (natural protein)
percent increase of Tat associated with CDK9 after 1 hr of PMA [1]: 12%
percent of HEXIM1 released from FLAG-CDK9 on expression of HA-Tat [1]: 71%
percent of LARP7 released from FLAG-CDK9 on expression of HA-Tat [1]: 82%

Molecule: CDK9 (FLAG-CDK9 isoform 1) (from UniProt P50750) S175D
percent of reference ([2]; sites S175): 78.9%

Molecule: HIV Tat H13L (from UniProt P04608 1-86) (natural protein)
percent of wildtype association [3]: 59.2%
percent of wildtype association [4]: 109%
CDK9 kinase activity of the affinity purified FLAG-CDK9 complex in the in vitro RNAP II CTD kinase assay, against wildtype CDK9 [5]: 159%
CDK9 kinase activity of the affinity purified FLAG-CDK9 complex in the in vitro autophosphorylation assay, against wildtype CDK9 [5]: 117%

Molecule: CDK9 (FLAG-CDK9 isoform 1) (from UniProt P50750) S175A
percent of reference ([2]; sites S175): 98.9%
percent of reference [6]: 59.2%
percent of reference ([7]; sites S175): 1.9%

Molecule: CDK9 (FLAG-CDK9 isoform 1) (from UniProt P50750) T186D
percent of reference ([2]; sites T186): 49.4%
percent of reference ([7]; sites T186): 61.6%

percent reduction of association after PMA for 1 h [8]: 30%
Molecule: endogenous CDK9 (from UniProt P50750 1-372) (enzyme)

percent co-immunoprecipitated against wildtype CDK9 [9]: 77.2%
percent reduction of co-precipitation against wildtype CDK9 [10]: > 99%
percent reduction of co-precipitation against wildtype CDK9 [11]: > 99%
percent co-immunoprecipitated against wildtype CDK9 [12]: > 90%
B1: LARP7 (natural protein, human (endogenous in Jurkat), UniProt Q4G0J3 1-582, looked up)
chain: METESGNQEKVMEEESTEKKKEVEKKKRSRVKQVLADIAKQVDFWFGDANLHKDRFLREQIEKSRDGYVDISLLVSFNKMKKLTTDGKLIARALRSSAVVELDLEGTRIRRKKPLGERPKDEDERTVYVELLPKNVNHSWIERVFGKCGNVVYISIPHYKSTGDPKGFAFVEFETKEQAAKAIEFLNNPPEEAPRKPGIFPKTVKNKPIPALRVVEEKKKKKKKKGRMKKEDNIQAKEENMDTSNTSISKMKRSRPTSEGSDIESTEPQKQCSKKKKKRDRVEASSLPEVRTGKRKRSSSEDAESLAPRSKVKKIIQKDIIKEASEASKENRDIEISTEEEKDTGDLKDSSLLKTKRKHKKKHKERHKMGEEVIPLRVLSKSEWMDLKKEYLALQKASMASLKKTISQIKSESEMETDSGVPQNTGMKNEKTANREECRTQEKVNATGPQFVSGVIVKIISTEPLPGRKQVRDTLAAISEVLYVDLLEGDTECHARFKTPEDAQAVINAYTEINKKHCWKLEILSGDHEQRYWQKILVDRQAKLNQPREKKRGTEKLITKAEKIRLAKTQQASKHIRFSEYD
notes: source: endogenous, Jurkat T-cell whole cell extract

percent co-immunoprecipitated against wildtype CDK9 [9]: 67.5%
percent reduction of co-precipitation against wildtype CDK9 [10]: > 99%
percent reduction of co-precipitation against wildtype CDK9 [11]: > 99%
percent co-immunoprecipitated against wildtype CDK9 [12]: > 90%
B2: HEXIM1 (natural protein, human (endogenous in Jurkat), UniProt O94992 1-359, looked up)
chain: MAEPFLSEYQHQPQTSNCTGAAAVQEELNPERPPGAEERVPEEDSRWQSRAFPQLGGRPGPEGEGSLESQPPPLQTQACPESSCLREGEKGQNGDDSSAGGDFPPPAEVEPTPEAELLAQPCHDSEASKLGAPAAGGEEEWGQQQRQLGKKKHRRRPSKKKRHWKPYYKLTWEEKKKFDEKQSLRASRIRAEMFAKGQPVAPYNTTQFLMDDHDQEEPDLKTGLYSKRAAAKSDDTSDDDFMEEGGEEDGGSDGMGGDGSEFLQRDFSETYERYHTESLQNMSKQELIKEYLELEKCLSRMEDENNRLRLESKRLGGDDARVRELELELDRLRAENLQLLTENELHRQQERAPLSKFGD
notes: as for B1
